The numbers were not newly measured in PMC6201748, which cites them from elsewhere.

This data set deals with ZipA (Escherichia coli) (UniProt P77173). The experiment in a line: SPR.

Chain of FtsZ (P0A9A6 whole entry): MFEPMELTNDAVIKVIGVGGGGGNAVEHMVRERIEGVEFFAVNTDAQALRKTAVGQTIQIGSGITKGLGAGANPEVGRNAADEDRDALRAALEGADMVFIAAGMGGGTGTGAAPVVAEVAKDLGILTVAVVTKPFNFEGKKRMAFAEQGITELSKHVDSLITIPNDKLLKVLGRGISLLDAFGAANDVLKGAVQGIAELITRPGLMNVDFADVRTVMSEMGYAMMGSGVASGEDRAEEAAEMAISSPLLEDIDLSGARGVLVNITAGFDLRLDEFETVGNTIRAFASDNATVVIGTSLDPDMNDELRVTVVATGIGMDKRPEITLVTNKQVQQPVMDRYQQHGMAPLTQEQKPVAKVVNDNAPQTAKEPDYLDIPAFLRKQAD

In general, Kd refers to the concentration at which binding is half-saturated. In the case of FtsZ (from UniProt P0A9A6), the Kd was 7 µM.
